From US6979530

Biological target: T1, Peptide conjugate 9 (DYE^2-Gly-Asp-Glu-Val-Asp-Gly-Ile-Lys-DYE^1)
T1 chain: GDEVDGIK

B1: purified caspase-3 (BD PharMingen) (protein)
chain: SGISLDNSYKMDYPEMGLCIIINNKNFHKSTGMTSRSGTDVDAANLRETFRNLKYEVRNKNDLTREEIVELMRDVSKEDHSKRSSFVCVLLSHGEEGIIFGTNGPVDLKKITNFFRGDRCRSLTGKPKLFIIQACRGTELDCGIETDSGVDDDMACHKIPVEADFLYAYSTAPGYYSWRNSKDGSWFIQSLCAMLKQYADKLEFMHILTRVNRKVATEFESFSFDATFHAKKQIPCIVSMLTKELYFYH
- fluorescence excitation and emission spectra before and after adding purified caspase-3 (in vitro cleavage): When purified caspase-3 is added to 9, significant excitation fluorescence (FIG. 6) and significant emission fluorescence is detected (FIG. 7) from the donor dibenzorhodamine dye
- time course of donor dye fluorescence emission after mixing with caspase-3 (in vitro cleavage): Emission from the donor dye increased rapidly during the first 5 to 10 minutes and stabilized in about an hour, indicating rapid cleavage.
